Laboratory results reported in the supplement of paper PMC10126150.
± gives the standard deviation of the averaged measurements.

Tested on: ATP
Assay: switch fluorescence ratio, 500 uM ATP over buffer (Cy3 cluster intensity, sum of 5 cycles each) (fold (ratio)); higher = stronger signal-on switching upon ATP binding; sequences stand for … in TCGTCGGCAGCGTCAGATGTGTATAAGAGACAGTTTTTTTTTTTTTTTTTTTTTTTTT…TC
Conditions: aptamer strand: ATP DNA aptamer (quencher-CACCTGGGGGAGTATTGCGGAGGAAGG + anchor), 100 nM annealed; ATP concentration: 500 uM
Outline: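 After annealing to 100 nM quencher-labelled ATP aptamer, Cy3-labelled switching-strand clusters on a modified Illumina MiSeq flow-cell were imaged in selection buffer. A second image followed after 15 min with 500 uM ATP at 22 °C, and five such buffer/ATP cycles were done, each separated by NaOH stripping and re-annealing. The fluorescence ratio, averaged per switch-domain sequence, is summed target-cycle over summed buffer-cycle Cy3 intensity per cluster, with clusters outside 100-1000 RFU excluded.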
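Also: ATP exposure 15 min at 22 °C before imaging.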

Sequence	switch fluorescence ratio
GGTTTAATCG	1.01 ± 0.046
GGTTTAATGG	1.01 ± 0.018
GGTTTAATTA	0.972 ± 0.03
GGTTTAGCG	1.014 ± 0.0025
GGTTTAGCTC	0.999 ± 0.038
GGTTTAGGAA	1 ± 0.028
GGTTTAGGAG	1.01 ± 0.062
GGTTTAGGCT	1.08 ± 0.12
GGTTTATGAC	1.13 ± 0.27
GGTTTCATGG	0.998 ± 0.012
GGTTTCGTTT	1.002 ± 0.0063
GGTTTGAAAA	1.01 ± 0.032
GGTTTGCGCT	1.004 ± 0.0076
GGTTTGGGAG	1 ± 0.036
GGTTTGGGGG	0.997 ± 0.023
GGTTTGGTAA	1.014 ± 0.0099
GGTTTGTGTT	0.974 ± 0.017
GGTTTTAAGT	1.01 ± 0.04
GGTTTTGATG	0.98 ± 0.039
GGTTTTGGCG	1 ± 0.061
GGTTTTGGGG	1.01 ± 0.026
GGTTTTGTAG	0.999 ± 0.012
GGTTTTGTTG	1.01 ± 0.0013

Sequence	switch fluorescence ratio
GGTTTTTAGA	1 ± 0.013
GGTTTTTTAC	1 ± 0.062
GGTTTTTTTC	1.02 ± 0.048
GTAAAAAAAG	1.09 ± 0.086
GTAAAAATTT	1.06 ± 0.11
GTAAAAGGGG	0.996 ± 0.042
GTAAAGCCTG	0.968 ± 0.032
GTAACCAATT	1.01 ± 0.021
GTAAGAGGGG	1.02 ± 0.03
GTAAGATGAA	1.01 ± 0.018
GTAAGATTGA	0.986 ± 0.015
GTAAGGAGTA	0.96199 ± 0.0002
GTAAGGGATA	0.988 ± 0.031
GTAAGGGGAT	0.988 ± 0.016
GTAAGGGGCA	1.07 ± 0.047
GTAAGGGGTC	1 ± 0.028
GTAAGTAGGA	1 ± 0.037
GTAAGTTGGT	1 ± 0.021
GTAAGTTTTT	0.984 ± 0.02
GTAATAAAAT	0.971 ± 0.034
GTAATAAGCG	1.007 ± 0.00016
GTAATACGTG	1.14 ± 0.041
GTAATACTTG	1.079 ± 0.01

Sequence	switch fluorescence ratio
GTAATAGGTT	0.956 ± 0.057
GTAATAGTTG	1.01 ± 0.022
GTAATATTAT	0.974 ± 0.032
GTAATCATCG	0.9847 ± 0.0073
GTAATCTCAG	0.997 ± 0.022
GTAATGCTTG	1.012 ± 0.01
GTAATGGAAT	0.9912 ± 0.0078
GTAATGTGGT	0.967 ± 0.024
GTAATTAAGG	0.996 ± 0.029
GTAATTCAGA	0.99 ± 0.037
GTAATTGGGC	0.964 ± 0.061
GTAATTGTAA	0.984 ± 0.012
GTAATTTGCA	0.9986 ± 0.0055
GTACCATTTT	0.9968 ± 0.0067
GTACCGGGCA	1.02 ± 0.026
GTACGAGGGA	0.997 ± 0.026
GTACGAGTGC	0.976 ± 0.019
GTACGTAGGC	1.03 ± 0.06
GTACTGCCTG	1 ± 0.024
GTACTTCTGT	0.96 ± 0.014
GTAGAAAAAG	1.99 ± 1.4
GTAGAAGGGA	1.01 ± 0.025
GTAGAAGGGG	1 ± 0.021

Sequence	switch fluorescence ratio
GTAGACGGGT	1.03 ± 0.031
GTAGAGAGTG	1 ± 0.02
GTAGAGCGGG	0.9889 ± 0.0042
GTAGGACTGC	1.01 ± 0.021
GTAGGAGCCG	0.9987 ± 0.0097
GTAGGAGGGA	1.05 ± 0.1
GTAGGGCGCG	1.021 ± 0.0035
GTAGGGGCTG	1 ± 0.074
GTAGGGGTCA	0.976 ± 0.054
GTAGTAATTG	1.075 ± 0.0065
GTAGTCTTAG	0.9943 ± 0.0097
GTAGTGACGT	0.975 ± 0.044
GTAGTTCATG	0.96 ± 0.018
GTATAAGCCT	1.05 ± 0.041
GTATAGGGTT	0.9931 ± 0.007
GTATATCCGG	0.975 ± 0.013
GTATCAGGGC	1.04 ± 0.033
GTATCTTACT	1.007 ± 0.0018
GTATGAAATG	0.999 ± 0.022
GTATGAGGCG	0.981 ± 0.04
GTATGAGGGA	0.993 ± 0.018
GTATGATGTG	0.9915 ± 0.008
GTATGCGAAG	1.03 ± 0.053

Sequence	switch fluorescence ratio
GTATGCGCAA	2.74 ± 0.06
GTATGCGTGT	1.04 ± 0.034
GTATGCTAAC	1 ± 0.043
GTATGCTTGG	0.9959 ± 0.0042
GTATGGGGGA	1.01 ± 0.031
GTATGTTGCG	0.96532 ± 0.00026
GTATTATTTA	1 ± 0.022
GTATTGAAGT	0.98469 ± 0.00015
GTATTGCTTT	0.963 ± 0.012
GTATTGTCAG	0.9663 ± 0.00064
GTATTGTTTT	1.14 ± 0.16
GTATTTCGGC	0.994 ± 0.027
GTATTTGGGA	0.991 ± 0.054
GTATTTTATT	1.006 ± 0.0064
GTATTTTGGG	0.996 ± 0.014
GTATTTTTGG	0.972 ± 0.03
GTCAAAGATT	0.98 ± 0.014
GTCAATAAGG	0.99 ± 0.016
GTCAATTGGG	0.992 ± 0.044
GTCACTAAAG	1.02 ± 0.043
GTCAGAATGT	1.02 ± 0.017
GTCAGAGGCA	0.991 ± 0.011
GTCAGGCCGG	1.09 ± 0.15

Sequence	switch fluorescence ratio
GTCAGGTCTT	0.975 ± 0.021
GTCAGTCTGA	0.9805 ± 0.003
GTCATAGTGT	0.955 ± 0.037
GTCATCGAGT	1.008 ± 0.0039
GTCATCGGCC	0.996 ± 0.035
GTCATTCCGC	1.65 ± 0.065
GTCATTGCGG	0.994 ± 0.015
GTCCAAGGGT	1.01 ± 0.035
GTCCATTGGG	1 ± 0.021
GTCCATTTTG	1.01 ± 0.064
GTCCCGGTTT	1.02 ± 0.095
GTCCGAAAGA	1.18 ± 0.095
GTCCGGATGG	1.02 ± 0.011
GTCCGGGGTT	0.994 ± 0.021
GTCCGGGTGG	1.05 ± 0.1
GTCGAAGGAA	1 ± 0.011
GTCGACAGGT	0.987 ± 0.031
GTCGCCGACC	0.996 ± 0.038
GTCGCGGTTG	1.03 ± 0.0015
GTCGGAAGGG	1.01 ± 0.032
GTCGGGGGAT	1.02 ± 0.014
GTCGGGGTAC	0.997 ± 0.034
GTCGGTAAGG	0.982 ± 0.021

Sequence	switch fluorescence ratio
GTCGGTACTT	0.996 ± 0.012
GTCGGTATTC	0.9947 ± 0.0081
GTCGTAAAAA	1.61 ± 0.0016
GTCGTACGTT	1.06 ± 0.025
GTCGTTAGGA	1.01 ± 0.0038
GTCGTTCGCA	1.15 ± 0.11
GTCGTTGGTT	0.985 ± 0.033
GTCGTTTGGG	0.991 ± 0.027
GTCTTATGGC	0.997 ± 0.011
GTCTTATTTA	0.976 ± 0.014
GTCTTGACGA	0.996 ± 0.019
GTGAAAAGGG	0.963 ± 0.038
GTGAAAGGGA	1.03 ± 0.017
GTGAAAGTGG	0.979 ± 0.028
GTGAAGACGT	1.002 ± 0.0077
GTGAAGAGGG	0.9977 ± 0.0056
GTGAAGTATG	1.016 ± 0.00074
GTGAATAGAG	1 ± 0.027
GTGACAGGTG	1.47 ± 0.053
